Results reported in IntAct's records for PubMed 21804599.

B1: "Na(+)/H(+) exchange regulatory cofactor NHE-RF1" (Homo sapiens), O14745 (parent)
chain: MSADAAAGAPLPRLCCLEKGPNGYGFHLHGEKGKLGQYIRLVEPGSPAEKAGLLAGDRLVEVNGENVEKETHQQVVSRIRAALNAVRLLVVDPETDEQLQKLGVQVREELLRAQEAPGQAEPPAAAEVQGAGNENEPREADKSHPEQRELRPRLCTMKKGPSGYGFNLHSDKSKPGQFIRSVDPDSPAEASGLRAQDRIVEVNGVCMEGKQHGDVVSAIRAGGDETKLLVVDRETDEFFKKCRVIPSQEHLNGPLPVPFTNGEIQKENSREALAEAALESPRPALVRSASSDTSEELNSQDSPPKQDSTAPSSTSSSDPILDFNISLAMAKERAHQKRSSKRAPQMDWSKKNELFSNL
partner: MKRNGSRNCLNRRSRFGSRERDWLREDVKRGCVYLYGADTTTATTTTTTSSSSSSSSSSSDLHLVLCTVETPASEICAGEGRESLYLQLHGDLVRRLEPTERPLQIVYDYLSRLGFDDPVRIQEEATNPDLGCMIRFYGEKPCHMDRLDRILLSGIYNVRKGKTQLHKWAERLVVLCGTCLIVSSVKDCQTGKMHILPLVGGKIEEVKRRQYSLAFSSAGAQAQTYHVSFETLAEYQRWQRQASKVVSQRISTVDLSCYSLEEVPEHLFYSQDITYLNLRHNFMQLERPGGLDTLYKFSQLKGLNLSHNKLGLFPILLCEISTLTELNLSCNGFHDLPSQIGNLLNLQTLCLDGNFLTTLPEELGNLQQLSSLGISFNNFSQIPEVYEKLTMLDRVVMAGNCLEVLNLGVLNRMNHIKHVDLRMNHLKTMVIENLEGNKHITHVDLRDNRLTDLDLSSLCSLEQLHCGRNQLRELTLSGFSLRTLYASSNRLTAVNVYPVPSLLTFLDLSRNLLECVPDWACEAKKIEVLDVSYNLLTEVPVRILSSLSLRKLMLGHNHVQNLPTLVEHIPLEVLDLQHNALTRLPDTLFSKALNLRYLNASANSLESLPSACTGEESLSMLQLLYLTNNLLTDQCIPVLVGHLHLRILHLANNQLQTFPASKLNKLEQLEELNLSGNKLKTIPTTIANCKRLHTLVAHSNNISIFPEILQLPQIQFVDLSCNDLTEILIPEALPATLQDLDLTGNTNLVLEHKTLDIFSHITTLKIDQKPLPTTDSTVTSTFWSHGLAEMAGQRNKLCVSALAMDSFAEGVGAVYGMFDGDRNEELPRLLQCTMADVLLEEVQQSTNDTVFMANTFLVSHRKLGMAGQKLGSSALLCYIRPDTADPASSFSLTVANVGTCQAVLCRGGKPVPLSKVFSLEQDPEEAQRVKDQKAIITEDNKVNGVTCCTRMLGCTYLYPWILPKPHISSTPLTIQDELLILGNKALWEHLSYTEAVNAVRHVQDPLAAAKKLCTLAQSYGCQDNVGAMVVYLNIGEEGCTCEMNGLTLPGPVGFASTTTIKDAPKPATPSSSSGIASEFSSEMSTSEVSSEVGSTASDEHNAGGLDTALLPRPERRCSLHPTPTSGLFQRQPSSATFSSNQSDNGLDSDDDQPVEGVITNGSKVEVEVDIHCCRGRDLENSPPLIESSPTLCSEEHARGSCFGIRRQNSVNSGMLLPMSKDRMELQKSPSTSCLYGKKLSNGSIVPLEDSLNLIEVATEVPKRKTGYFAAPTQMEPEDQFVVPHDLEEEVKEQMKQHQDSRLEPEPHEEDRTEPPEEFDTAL
B2: "Na(+)/H(+) exchange regulatory cofactor NHE-RF1" (Homo sapiens), O14745 (parent)
chain: B1 chain
partner: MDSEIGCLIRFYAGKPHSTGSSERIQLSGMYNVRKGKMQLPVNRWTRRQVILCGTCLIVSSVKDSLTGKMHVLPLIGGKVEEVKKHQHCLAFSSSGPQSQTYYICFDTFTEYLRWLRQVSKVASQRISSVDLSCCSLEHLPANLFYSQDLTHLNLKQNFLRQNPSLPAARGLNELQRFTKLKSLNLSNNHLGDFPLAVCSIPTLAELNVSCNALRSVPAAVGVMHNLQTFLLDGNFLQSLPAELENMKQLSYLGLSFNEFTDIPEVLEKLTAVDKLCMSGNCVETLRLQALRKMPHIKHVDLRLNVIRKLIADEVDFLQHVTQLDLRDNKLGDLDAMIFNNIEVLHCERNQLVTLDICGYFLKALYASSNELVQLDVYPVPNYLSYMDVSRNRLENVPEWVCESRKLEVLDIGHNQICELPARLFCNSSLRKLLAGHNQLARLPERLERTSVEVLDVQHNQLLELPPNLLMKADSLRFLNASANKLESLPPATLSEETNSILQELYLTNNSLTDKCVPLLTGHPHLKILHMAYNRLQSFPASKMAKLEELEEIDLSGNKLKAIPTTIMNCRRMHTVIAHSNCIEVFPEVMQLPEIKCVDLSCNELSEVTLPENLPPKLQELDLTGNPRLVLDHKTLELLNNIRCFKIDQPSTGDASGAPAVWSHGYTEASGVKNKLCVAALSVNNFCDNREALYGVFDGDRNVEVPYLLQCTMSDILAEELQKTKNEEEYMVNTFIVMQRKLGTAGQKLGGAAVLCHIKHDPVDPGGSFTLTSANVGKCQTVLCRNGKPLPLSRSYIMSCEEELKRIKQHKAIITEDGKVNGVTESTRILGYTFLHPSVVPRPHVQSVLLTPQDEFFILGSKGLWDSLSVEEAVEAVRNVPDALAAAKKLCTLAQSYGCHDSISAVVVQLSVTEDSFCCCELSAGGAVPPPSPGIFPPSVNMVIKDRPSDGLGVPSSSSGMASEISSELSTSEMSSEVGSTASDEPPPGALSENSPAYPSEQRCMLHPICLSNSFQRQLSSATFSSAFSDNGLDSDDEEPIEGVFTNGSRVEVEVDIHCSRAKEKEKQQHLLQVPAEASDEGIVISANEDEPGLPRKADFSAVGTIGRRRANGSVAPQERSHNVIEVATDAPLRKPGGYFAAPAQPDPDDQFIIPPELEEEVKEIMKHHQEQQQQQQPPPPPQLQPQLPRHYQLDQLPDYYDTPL

Variants of: B1
Settings: with phlp2_human PHLPP2, Q6ZVD8
For MSADAAAGAPLPRLCCLEKGPNGYGFHLHGEKGKLGRYIRLVEPGSPAEKAGLLAGDRLVEVNGENVEKETHQQVVSRIRAALNAVRLLVVDPETDEQLQKLGVQVREELLRAQEAPGQAEPPAAAEVQGAGNENEPREADKSHPEQRELRPRLCTMKKGPSGYGFNLHSDKSKPGQFIRSVDPDSPAEASGLRAQDRIVEVNGVCMEGKQHGDVVSAIRAGGDETKLLVVDRETDEFFKKCRVIPSQEHLNGPLPVPFTNGEIQKENSREALAEAALESPRPALVRSASSDTSEELNSQDSPPKQDSTAPSSTSSSDPILDFNISLAMAKERAHQKRSSKRAPQMDWSKKNELFSNL [Q37R], the “effect of a mutation on the interaction” value was “disrupting interaction”.

Variants of: B2
Settings: with PHLPP1, O60346-2
In the case of MSADAAAGAPLPRLCCLEKGPNGYGFHLHGEKGKLGRYIRLVEPGSPAEKAGLLAGDRLVEVNGENVEKETHQQVVSRIRAALNAVRLLVVDPETDEQLQKLGVQVREELLRAQEAPGQAEPPAAAEVQGAGNENEPREADKSHPEQRELRPRLCTMKKGPSGYGFNLHSDKSKPGQFIRSVDPDSPAEASGLRAQDRIVEVNGVCMEGKQHGDVVSAIRAGGDETKLLVVDRETDEFFKKCRVIPSQEHLNGPLPVPFTNGEIQKENSREALAEAALESPRPALVRSASSDTSEELNSQDSPPKQDSTAPSSTSSSDPILDFNISLAMAKERAHQKRSSKRAPQMDWSKKNELFSNL [Q37R], the “effect of a mutation on the interaction” value is reported as “disrupting interaction”.
